Positions count from the first letter of the chain named.
T1: human NKG2D-Fc fusion protein (human, UniProt P26718 73-216)
T1 construct: extracellular domain; also called recombinant human NKG2D-Fc; human recombinant NKG2D; not shown: human IgG1 Fc domain
T1 sequence (looked up): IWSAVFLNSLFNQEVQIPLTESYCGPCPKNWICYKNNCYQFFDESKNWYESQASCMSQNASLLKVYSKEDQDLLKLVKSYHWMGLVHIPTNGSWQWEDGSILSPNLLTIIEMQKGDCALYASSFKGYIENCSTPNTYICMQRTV

T2: cynomolgus NKG2D-Fc fusion protein (cynomolgus; human, UniProt P61252 73-216)
T2 construct: extracellular domain; also called cynomolgus recombinant NKG2D-Fc; cynomolgus recombinant NKG2D; not shown: human IgG1 Fc domain
T2 sequence (looked up): T1 sequence (looked up) with D43N, T133I

T3: mouse NKG2D-Fc fusion protein (mouse; human, UniProt O54709 90-232)
T3 construct: extracellular domain; also called mouse recombinant NKG2D-Fc; recombinant mouse NKG2D-Fc; not shown: human IgG1 Fc domain
T3 sequence (looked up): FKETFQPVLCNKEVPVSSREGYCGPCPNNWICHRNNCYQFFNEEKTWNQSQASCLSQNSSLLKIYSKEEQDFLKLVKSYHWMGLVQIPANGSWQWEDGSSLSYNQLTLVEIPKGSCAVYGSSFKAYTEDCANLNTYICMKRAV

B1: ADI-27727 (antibody, V domains shown)
VH: QVQLVQSGAEVKKPGSSVKVSCKASGGTFSSYAISWVRQAPGQGLEWMGGIIPIFGTANYAQKFQGRVTITADESTSTAYMELSSLRSEDTAVYYCARGDSSIRHAYYYYGMDVWGQGTTVTVSS
VL: not shown
B2: ADI-29443 (antibody, V domains shown)
VH: QLQLQESGPGLVKPSETLSLTCTVSGGSISSSSYYWGWIRQPPGKGLEWIGSIYYSGSTYYNPSLKSRVTISVDTSKNQFSLKLSSVTAADTAVYYCARGSDRFHPYFDYWGQGTLVTVSS
VL: EIVLTQSPATLSLSPGERATLSCRASQSVSRYLAWYQQKPGQAPRLLIYDASNRATGIPARFSGSGSGTDFTLTISSLEPEDFAVYYCQQFDTWPPTFGGGTKVEIK
notes: also called F43
B3: ADI-29378 (antibody, V domains shown)
VH: QVQLVQSGAEVKKPGASVKVSCKASGYTFTSYYMHWVRQAPGQGLEWMGIINPSGGSTSYAQKFQGRVTMTRDTSTSTVYMELSSLRSEDTAVYYCAREGAGFAYGMDYYYMDVWGKGTTVTVSS
VL: B2 VL with R31S, F91S, T93N, P96F
notes: also called E78
B4: ADI-27705 (antibody, V domains shown)
VH: QVQLQQWGAGLLKPSETLSLTCAVYGGSFSGYYWSWIRQPPGKGLEWIGEIDHSGSTNYNPSLKSRVTISVDTSKNQFSLKLSSVTAADTAVYYCARARGPWSFDPWGQGTLVTVSS
VL: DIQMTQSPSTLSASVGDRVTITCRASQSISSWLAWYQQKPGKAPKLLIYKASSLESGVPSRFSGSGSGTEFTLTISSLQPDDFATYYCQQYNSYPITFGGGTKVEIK
B5: ADI-27724 (antibody, V domains shown)
VH: B4 VH
VL: not shown
B6: ADI-29403 (antibody, V domains shown)
VH: B4 VH
VL: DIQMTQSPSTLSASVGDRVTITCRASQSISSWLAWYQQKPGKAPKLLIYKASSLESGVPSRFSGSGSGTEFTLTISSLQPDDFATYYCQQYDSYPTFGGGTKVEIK
B7: ADI-29419 (antibody, V domains shown)
VH: B4 VH
VL: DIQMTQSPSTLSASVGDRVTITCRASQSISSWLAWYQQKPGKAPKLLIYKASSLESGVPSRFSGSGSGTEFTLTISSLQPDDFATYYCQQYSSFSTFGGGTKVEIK
B8: ADI-29426 (antibody, V domains shown)
VH: B4 VH
VL: DIQMTQSPSTLSASVGDRVTITCRASQSIGSWLAWYQQKPGKAPKLLIYKASSLESGVPSRFSGSGSGTEFTLTISSLQPDDFATYYCQQYHSFPTFGGGTKVEIK
B9: ADI-29404 (antibody, V domains shown)
VH: B4 VH
VL: B8 VL with G30S, Q89E, H92D, F94Y
notes: also called F04
B10: ADI-29421 (antibody, V domains shown)
VH: B4 VH
VL: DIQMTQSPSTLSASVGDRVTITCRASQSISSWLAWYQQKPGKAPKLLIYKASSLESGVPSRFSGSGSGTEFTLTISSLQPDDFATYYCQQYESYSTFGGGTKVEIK
B11: ADI-29405 (antibody, V domains shown)
VH: B4 VH
VL: B8 VL with G30S, H92G
B12: ADI-29399 (antibody, V domains shown)
VH: B4 VH
VL: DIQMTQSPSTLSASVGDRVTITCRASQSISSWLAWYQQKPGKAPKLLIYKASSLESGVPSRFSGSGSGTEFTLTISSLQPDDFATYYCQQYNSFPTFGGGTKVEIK
B13: ADI-29447 (antibody, V domains shown)
VH: B4 VH
VL: B8 VL with G30S, H92D, S93T, P95I
notes: also called F47
B14: ADI-28226 (antibody, V domains shown)
VH: B4 VH
VL: DIQMTQSPSTLSASVGDRVTITCRASQSISSWLAWYQQKPGKAPKLLIYKASSLESGVPSRFSGSGSGTEFTLTISSLQPDDFATYYCQQYGSFPITFGGGTKVEIK
notes: also called C26
B15: ADI-27743 (antibody, V domains shown)
VH: B4 VH
VL: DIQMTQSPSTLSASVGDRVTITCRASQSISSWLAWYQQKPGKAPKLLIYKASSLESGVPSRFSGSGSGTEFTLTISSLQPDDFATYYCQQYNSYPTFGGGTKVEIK
B16: ADI-27741 (antibody, V domains shown)
VH: B4 VH
VL: B8 VL with Y91S, H92N, F94Y, P95Y
B17: ADI-29429 (antibody, V domains shown)
VH: B4 VH
VL: B14 VL with S30G, G92E, S93L, F94Y, P95S, I96Y
B18: ADI-29401 (antibody, V domains shown)
VH: B4 VH
VL: B8 VL with H92D, S93I, F94Y
B19: ADI-29407 (antibody, V domains shown)
VH: B4 VH
VL: B8 VL with G30S, H92Q
B20: ADI-29424 (antibody, V domains shown)
VH: B4 VH
VL: B8 VL with G30S, H92D, P95I
B21: ADI-27740 (antibody, V domains shown)
VH: B4 VH
VL: B8 VL with P95Y
notes: also called A40
B22: ADI-29425 (antibody, V domains shown)
VH: B4 VH
VL: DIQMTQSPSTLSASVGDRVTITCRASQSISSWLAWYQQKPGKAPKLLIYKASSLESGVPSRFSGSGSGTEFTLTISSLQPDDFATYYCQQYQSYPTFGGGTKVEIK
B23: ADI-29379 (antibody, V domains shown)
VH: QVQLVQSGAEVKKPGASVKVSCKASGYTFTSYYMHWVRQAPGQGLEWMGIINPSGGSTSYAQKFQGRVTMTRDTSTSTVYMELSSLRSEDTAVYYCARGAPNYGDTTHDYYYMDVWGKGTTVTVSS
VL: EIVMTQSPATLSVSPGERATLSCRASQSVSSNLAWYQQKPGQAPRLLIYGASTRATGIPARFSGSGSGTEFTLTISSLQSEDFAVYYCQQYDDWPFTFGGGTKVEIK
notes: also called E79
B24: ADI-27744 (antibody, V domains shown)
VH: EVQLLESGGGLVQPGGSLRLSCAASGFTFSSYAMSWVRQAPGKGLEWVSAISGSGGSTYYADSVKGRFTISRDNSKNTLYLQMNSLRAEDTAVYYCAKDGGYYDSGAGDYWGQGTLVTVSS
VL: DIQMTQSPSSVSASVGDRVTITCRASQGIDSWLAWYQQKPGKAPKLLIYAASSLQSGVPSRFSGSGSGTDFTLTISSLQPEDFATYYCQQGVSYPRTFGGGTKVEIK
notes: also called A44
B25: ADI-27749 (antibody, V domains shown)
VH: EVQLVESGGGLVKPGGSLRLSCAASGFTFSSYSMNWVRQAPGKGLEWVSSISSSSSYIYYADSVKGRFTISRDNAKNSLYLQMNSLRAEDTAVYYCARGAPMGAAAGWFDPWGQGTLVTVSS
VL: B24 VL with D30S, Y94F
notes: also called A49

The binders below were run against T1, human NKG2D-Fc fusion protein (assay: ELISA on coated NKG2D-Fc).

Binding result, binds:
B1
B2
B3
B4
B5
B6
B7
B8
B9
B10
B11
B12
B13
B14
B15
B16
B17
B18
B19
B20
B21
B22
B23
B24
B25

What follows are binders tested against T2, cynomolgus NKG2D-Fc fusion protein (assay: ELISA on coated NKG2D-Fc).

Binding result, binds:
B1
B3
B4
B5
B6
B7
B8
B9
B10
B11
B12
B13
B14
B15
B16
B17
B18
B19
B20
B21
B22
B23
B24
B25

The binders below were run against T3, mouse NKG2D-Fc fusion protein (assay: ELISA on coated NKG2D-Fc).

Binding result, binds:
B1
B2
B3
B4
B5
B6
B7
B8
B9
B10
B11
B12
B13
B14
B15
B16
B17
B18
B19
B20
B21
B22
B23
B24
B25
